The chains are these.
B1: SEQ ID NO 231 (designed binder)
chain: MLPAPKNLVVSRVTEDSARLSWTAPDAAFDSFEIPYIETVALGEAIVLTVPGSERSYDLTGLKPGTEYYVEIYGVKGGSYSYPLSAISTT
B2: SEQ ID NO 230 (designed binder)
chain: MLPAPKNLVVSRVTEDSARLSWTAPDAAFDSFQIRYPKRWISGEAIVLTVPGSERSYDLTGLKPGTEYEVVIRGVKGGEYSWPLSAIFTT
B3: SEQ ID NO 235 (designed binder)
chain: MLPAPKNLVVSRVTEDSARLSWTAPDAAFDSFSINYREWWSDGEAIYLPVPGSERSYDLTGLKPGTEYAVYIQGVKGGSRSFPLHAWFTT
B4: SEQ ID NO 207 (designed binder)
chain: MLPAPKNLVVSRVTEDSARLSWTAPDAAFDSFFIGYLEPQPPGEAIVLTVPGSERSYDLTGLKPGTEYNVTIQGVKGGTPSEPLSAISTT
B5: SEQ ID NO 210 (designed binder)
chain: MLPAPKNLVVSRVTEDSARLSWTAPDAAFDSFSIVYGERFVNGEAIVLTVPGSERSYDLTGLKPGTEYHVYIDGVKGGDLSWPLSAIFTT
B6: SEQ ID NO 208 (designed binder)
chain: MLPAPKNLVVSRVTEDSARLSWTAPDAAFDSFGIVYREPYVGGEAIVLTVPGSERSYDLTGLKPGTEYGVPIPGVKGGYDSGPLSAIFTT
B7: SEQ ID NO 213 (designed binder)
chain: MLPAPKNLVVSRVTEDSARLSWTAPDAAFDSFWIYYWEIERAGEAIRLDVPGSERSYDLTGLKPGTEYRVDIWGVKGGPTSGPLRATFTT
B8: SEQ ID NO 203 (designed binder)
chain: MLPAPKNLVVSRVTEDSARLSWTAPDAALDSFRIEYYESYGHGEAIVLTVPGSERSYDLTGLKPGTEYDVGIYGVKGGYYSRPLSAIFTT
B9: SEQ ID NO 225 (designed binder)
chain: B8 chain with L29F, R33K, Y37F, S39Y, Y40V, H42Y, D69Y, G71A, Y79W
B10: SEQ ID NO 212 (designed binder)
chain: B8 chain with L29F, R33I, Y37W, S39Q, Y40I, H42V, D69W, Y79L, Y80L, R82S
B11: SEQ ID NO 198 (designed binder)
chain: MLPAPKNLVVSRVTEDSARLSWTAPDAAFDSFLIAYNEDRKFGEAIVLTVPGSERSYDLTGLKPGTEYDVWIEGVKGGSLSFPLSAIFTT
B12: SEQ ID NO 237 (designed binder)
chain: B11 chain with L33T, A35L, N37G, D39M, R40G, K41T, F42T, W71F, S79E, F82W
B13: SEQ ID NO 205 (designed binder)
chain: MLPAPKNLVVSRVTEDSARLSWTAPDAAFDSFDIDYDEPAWNGEAIVLTVPGSERSYDLTGLKPGTEYRVFIYGVKGGNTSWPLSAIFTT
B14: SEQ ID NO 206 (designed binder)
chain: B13 chain with D35E, P39L, A40W, W41K, N79Y, T80G, W82F
B15: SEQ ID NO 47 (designed binder)
chain: MLPAPKNLVVSRVTEDSARLSWTAPDAAFDSFTIWYAEALGDGEAIVLTVPGSERSYDLTGLKPGTEYFVDIYGVKGGFWSLPLSAIFTT
B16: SEQ ID NO 218 (designed binder)
chain: B15 chain with W35L, A37Y, A39M, L40V, D42E, L62P, F69W, F79G, L82R
B17: SEQ ID NO 211 (designed binder)
chain: B15 chain with T33W, W35N, A37Y, L40Q, G41P, F69D, D71E, Y73A, F79T, W80A
B18: SEQ ID NO 223 (designed binder)
chain: B15 chain with Y73P, F79T, W80R, L82S, F88S
B19: SEQ ID NO 214 (designed binder)
chain: MLPAPKNLVVSRVTEDSARLSWTAPDAAFDSFAIPYGERQELGEAIVLTVPGSERSYDLTGLKPGTEYFVVIQGVKGGQPSYPLSAIFTT
B20: SEQ ID NO 197 (designed binder)
chain: MLPAPKNLVVSRVTEDSARLSWTAPDAAFDSFKIDYLEINDNGEAIVLTVPGSERSYDLTGLKPGTEYPVYIWGVKGGYPSSPLSAIFTT
B21: SEQ ID NO 200 (designed binder)
chain: B20 chain with K33Y, D35E, L37Y, I39W, N40M, D41H, N42T, P69S, W73Y
B22: SEQ ID NO 215 (designed binder)
chain: B20 chain with K33L, D35P, L37A, I39T, N40S, D41P, N42T, P69S, Y71L, W73H
B23: SEQ ID NO 202 (designed binder)
chain: B20 chain with K33Y, I39L, N40T, D41Y, N42S, P69Y, W73Y
B24: SEQ ID NO 219 (designed binder)
chain: B20 chain with K33H, I39L, N40T, D41Y, N42A, P69Y, Y71T, W73Y
B25: SEQ ID NO 227 (designed binder)
chain: B20 chain with K33R, D35R, I39W, N40W, D41N, N42I, P69H, Y71D, P80S, S82Y
B26: SEQ ID NO 221 (designed binder)
chain: MLPAPKNLVVSRVTEDSARLSWTAPDAAFDSFHISYQEVVAEGEAIYLRVPGSERSYDLTGLKPGTEYYVLIHGVKGGYESKPLDASFTT
B27: SEQ ID NO 204 (designed binder)
chain: MLPAPKNLVVSRVTEDSARLPWTAPDAAFDSFWISYYESVGYGEAIVLTVPGSERSYDLTGLKPGTEYYVDISGVKGGVYSLPLSAIFTT
B28: SEQ ID NO 224 (designed binder)
chain: MLLAPKNLVVSRVTEDSARLSWTAPDAAFDSFRYLEQGLYGEAIVLTVPGSERSYDLTGLKPGTEYWVEIIGVKGGEYSTPLSAIFTT
B29: SEQ ID NO 201 (designed binder)
chain: MLPAPKNLVVSRVTEDSARLSWTAPDAAFDSFNIDYWETWVIGEAIVLTVPGSERSYDLTGLKPGTEYEVIIPGVKGGTISPPLSAIFTT
B30: SEQ ID NO 199 (designed binder)
chain: MLPAPKNLVVSRVTEDSARLSWTAPDAAFDSFGIRYFEWWDLGEAIVLTVPGSERSYDPTGLKPGTEYNVTIQGVKGGFPSMPLSAIFTT
B31: SEQ ID NO 217 (designed binder)
chain: MLPAPKNLVVSRVTEDSARLSWTAPDAAFDSFIIEYWEWYFAGEAIVLTVPGSERSYDLTGLKPGTEYTVWITGVKGGTWSEPLSAIFTT
B32: SEQ ID NO 49 (designed binder)
chain: MLPAPKNLVVSRVTEDSARLSWTAPDAAFDSFGISYLEWWEDGEAIVLTVPGSERSYDLTGLKPGTEYWVSIAGVKGGKRSYPLSAIFTT
B33: SEQ ID NO 229 (designed binder)
chain: B32 chain with G33S, S35H, L37D, W39D, E41R, D42R, W69L, S71E, A73P, R80A
B34: SEQ ID NO 48 (designed binder)
chain: MLPAPKNLVVSRVTEDSARLSWTAPDAAFDSFVIEYFEQFNLGEAIVLTVPGSERSYDLTGLKPGTEYWVGIYGVKGGWLSHPLSAIFTT
B35: SEQ ID NO 222 (designed binder)
chain: B34 chain with V33Y, Q39W, F40T, N41G, L42S, W69N, G71A, W79A, L80V, H82Y
B36: SEQ ID NO 220 (designed binder)
chain: MLPAPKNLVVSRVTEDSARLSWTAPDAAFDSFHIIYEEDGTEGEAIYLRVPGSERSYDLTGLKPGTEYEVDIEGVKGGVLSWPLFAEFTT
B37: SEQ ID NO 226 (designed binder)
chain: B36 chain with D39V, G40L, E69G, D71T, E73K, V79A, L80Y, W82I, F85I, E87T
B38: SEQ ID NO 216 (designed binder)
chain: MLPAPKNLVVSRVTEDSARLSWTAPDAAFDSFPIAYAEPTPSGEAIVLTVPGSERSYDLTGLKPGTEYSVLIHGVKGGGLSLPLSAIFTT
B39: SEQ ID NO 233 (designed binder)
chain: B38 chain with P33Y, A35V, T40I, S42N, G79R, L80N, L82D
B40: SEQ ID NO 238 (designed binder)
chain: MLPAPKNLVVSRVTEDSARLSWTAPDAAFDSFKIFYQEFGGEAIVLTVPGSERSYDLTGLKPGTEYWVDIYGVKGGYTSSPLSAIFTT

The record followed here is patent US20210145976A1.

Positions count from the first letter of the chain named.

In the assay the target is human serum albumin (human) (UniProt P02768). Kind of assay: screening ELISA.
Chain of human serum albumin (human) (P02768 25-609 limits assumed): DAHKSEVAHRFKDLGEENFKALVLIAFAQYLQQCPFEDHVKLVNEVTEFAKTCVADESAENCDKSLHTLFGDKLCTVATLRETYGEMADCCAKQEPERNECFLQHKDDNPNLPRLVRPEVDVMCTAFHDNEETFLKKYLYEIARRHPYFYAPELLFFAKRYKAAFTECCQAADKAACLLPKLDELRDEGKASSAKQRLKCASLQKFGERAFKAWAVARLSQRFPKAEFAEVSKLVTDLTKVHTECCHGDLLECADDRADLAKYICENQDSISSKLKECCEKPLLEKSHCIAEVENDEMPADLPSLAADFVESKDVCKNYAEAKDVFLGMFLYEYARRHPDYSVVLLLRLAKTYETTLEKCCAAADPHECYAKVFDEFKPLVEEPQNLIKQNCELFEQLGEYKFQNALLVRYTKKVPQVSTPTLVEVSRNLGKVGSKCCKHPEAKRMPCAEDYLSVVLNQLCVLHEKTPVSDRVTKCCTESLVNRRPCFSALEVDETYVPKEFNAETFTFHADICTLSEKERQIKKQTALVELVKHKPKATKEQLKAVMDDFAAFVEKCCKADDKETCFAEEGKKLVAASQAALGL
On to B1, for which the HSA is 26500. As to B2, the HSA was found to be 1900. B3 gave an HSA of 1350. B4 gave an HSA of 25600. Molecule B5 had an HSA of 2250. For B6, the HSA was 46700.

B7 yielded an HSA of 9800. B8 showed an HSA of 3300. Next, B9: 14100; B10: 2250; B11: 3050.

In the case of B12, the HSA came out at 1850. In turn, B13 showed an HSA of 3350. As to B14, the HSA is 2650. With B15, the HSA stood at 5200. The molecule B16 came in with an HSA of 33800. The molecule B17 displayed an HSA of 3000. The molecule B18 returned an HSA of 52000.

Take B19: the HSA was found to be 2200. Take B20: the HSA was found to be 18900. B21 displayed an HSA of 2100.

With B22, the HSA is 1750. B23 yielded an HSA of 2800. As for B24, the figure is 2600; as for B25, 2300; as for B26, 3650. As for B27, the HSA was 24600. The molecule B28 gave an HSA of 16500. As for B29, the HSA stood at 11400. The molecule B30 registered an HSA of 14400.

For the molecule B31, the HSA is 11800. Turning to B32, the HSA turned out to be 11500. Next, B33: 3700; B34: 2800. As to B35, the HSA stood at 3950. Molecule B36 gave an HSA of 9400. In the case of B37, the HSA worked out at 2850. B38 yielded an HSA of 21800. B39 had an HSA of 2600.

With B40, the HSA turned out to be 4250.
